The series relates to T1, SpuFz1 (FZID16) (Spizellomyces punctatus).
T1 sequence: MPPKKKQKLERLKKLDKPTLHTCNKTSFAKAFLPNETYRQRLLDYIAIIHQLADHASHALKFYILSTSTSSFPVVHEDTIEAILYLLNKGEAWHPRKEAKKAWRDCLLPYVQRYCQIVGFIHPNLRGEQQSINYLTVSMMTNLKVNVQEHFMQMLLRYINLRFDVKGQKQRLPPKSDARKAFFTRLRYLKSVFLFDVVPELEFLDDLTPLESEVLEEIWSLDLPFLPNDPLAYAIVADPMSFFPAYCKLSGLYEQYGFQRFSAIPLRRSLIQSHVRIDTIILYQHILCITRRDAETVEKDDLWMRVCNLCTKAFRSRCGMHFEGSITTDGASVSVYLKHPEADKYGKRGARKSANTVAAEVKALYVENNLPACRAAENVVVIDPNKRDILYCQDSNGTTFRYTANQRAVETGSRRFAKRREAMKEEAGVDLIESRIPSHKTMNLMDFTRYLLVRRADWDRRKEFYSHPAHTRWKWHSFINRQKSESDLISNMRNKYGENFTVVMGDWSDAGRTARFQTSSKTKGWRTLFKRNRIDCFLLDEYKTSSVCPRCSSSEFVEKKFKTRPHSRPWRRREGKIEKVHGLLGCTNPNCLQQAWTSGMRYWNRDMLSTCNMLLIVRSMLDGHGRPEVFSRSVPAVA
Kind of series: cell_activity. The note with it: HEK293FT, TAM CATA.

These results are taken from US20260185093.

Consider “GUCCACGGACUGCUGGGUUGUACCAACCCUAACUGUUUGCAGCAAGCCUGGACAUCGGGAAUGCGCUACUGGAAUCGAGAUAUGCUGUCAACCUGCAACAUGCUAUUGAUUGUGAGAUCAAUGUUGGAUGGACACGGUAGACCAGAAGUGUUCAGCAGGAGUGUUCCAGCCGUAGCGUAGAACGUAGAUUGGUUAGAUUAGGUUUUCCGAGCCGGUUGUCGCGCGGUUCAAUCCCUGGUGCGGGUGCUAGUGCCAAUACCCACCGGCUCCGCACUAGCAUUCCUUAACACAUCACU / GCATTCCTTAACACATCACT / AGTGATGTGTTAAGGAATGC”, for which the activity (gID7, longest initial scaffold) came out at 0.78 % indel.

Under “gID7, minimal omegaRNA”, “GUUUUCCGAGCCGGUUGUCGCGCGGUUCAAUCCCUGGUGCGGGUGCUAGUGCCAAUACCCACCGGCUCCGCACUAGCAUUCCUUAACACAUCACU / GCATTCCTTAACACATCACT / AGTGATGTGTTAAGGAATGC” came in with an activity of 0.17 % indel.
